The supplement of paper PMC12636428

System: Saccharomyces cerevisiae
Assay: transcriptional activation domain activity (GFP:mCherry ratio, weighted mean of sorted bins, harmonized to initial dataset scale) (arbitrary fluorescence ratio units); higher = stronger transcriptional activation
Conditions: beta-estradiol 1 µM; induction time 4 h
Outline: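 In diploid yeast carrying a GFP reporter, barcoded protein tiles fused to an estradiol-inducible synthetic transcription factor were integrated at the URA3 locus. Cultures diluted 1:5 into SC with 1 uM beta-estradiol were kept at 30 °C for 4 hours, then sorted by GFP:mCherry ratio into 8 bins before barcode sequencing. Tiles with under 50 reads were excluded. The activation activity reported here is the read-weighted mean of bin median fluorescence, averaged across barcodes and linearly rescaled to the initial dataset.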

| Sequence | transcriptional activation domain activity |
| --- | --- |
| HGAPPPPPPPPPPPPPVAGGPPPPPPPPPPGGAPPPPPPPPPPGGGGSAPLPA | 44500 |
| KIHLLPTGVHQWNLKVKDLIHCLKLFHYAEIMYALSIVPLKAAIIFQCLRVFV | 47200 |
| MSNVQTELPFFPSCFVFFRGSFSFFCLVLFPLMAFIIELSILSFRCLFLLFLL | 61300 |
| EWVIGWCKQIGLPDGVTEFIGRSYIMTAEAYLDLPMSKQVLVPVVAINTLVFV | 34200 |
| NITKVAERGERLDSLQDKTDNLAVSAQGFRRGANRVRKVSSVVPFIQHSAHKL | 22000 |
| PRTASRRAARSARPRRQSSPRPKGRRSNTRPSKRASVSPAKDSDASDGDDERE | 19400 |
| MLPHCIVIIGILFSLLSDVYLYLESSLIHKVHLSSIPGTLLWHPAFFLCILCK | 55800 |
| KNNLWYLPLYLFYLSRVTPAATVVPVFLFFFIFFYFFIFIFYLFLFYLSFSIF | 49900 |
| YTTPQFAGMWSQLVEWQWLVIEKFLDILLNMLYLLHGMSYIWGNLFLPYFRLV | 53600 |
| SICCALQDWYDYFSTLSYQDTLKSNIWYSLAETEYYWLHLLLFLPHLKRYLTR | 47600 |
| IGTSSTGDLECCLFTLLLFSWFWGLQTFLSICYYYGSFVSQAFFFFFHFFFFW | 53800 |
| TWLLFRQVVDVILINDFLAYCMFAFSCFRVPTDLSIPVHVMRWLVGITLIWFN | 74100 |
| QVTALVRLIVRLNCELDLNLRGFVAALCIHWIKQSAGSASLKVLLYHAVFLAD | 44900 |
| GALRLAASQEGIKLGDDVKSNVKMVLGKDAQGGFAVSAEVTVSGNGVTKALVD | 31300 |
| FFSFPSFLLLPPPLSSLPFPSPFLSLLLSLLAFPAAFFPLFSLSSLLNIFPTT | 58500 |
| QILGCLYCVRWVHMCVYNVSGVQSLIPWLAMLPALARLKFSIWSHRGPPPDGD | 52100 |
| SESDTDSEEEEIEEDEGAAETRPGIRLQREEKAVETGEITNRLAIVNIDWDHL | 32000 |
| LEQHPKDRVKFSTPELVPLDLKNPELDSSFDLNMNLDLNLNLDSNFNIALNRS | 97100 |
| YINAMLGLPRSISPDDFDQTLPLDLSDENITEVAYLPENQHSVLSSTGISNEH | 58400 |
| MSLPGGFIFCCLFIFIFFAPFYSTFLRFFFPSCFYLFFYICCSFFFFFFFFPP | 38900 |
| YVLATCYPKWVYEVLMATRGRIWCVLILLAYPFFAVGVGVIVCVMGLLVAAWI | 35800 |

| Sequence | transcriptional activation domain activity |
| --- | --- |
| MFLCLQFRYLFCCGLKHWLRWGDALCLRVLMQGRCCWCGKRKFMLSVSILSWR | 53600 |
| QFFFFVLSFFFFVGFVGADDLCSFILFLLFFSTPFFFIGKASLLSSFFAFHST | 51700 |
| TLYWSYGMYIMYNGPHWLNTSYYWIDYPHILISRQTKTYYLMQLAFWVQQVYT | 41600 |
| LVRQEDLINIAFHFVAKIPCTWPLPLRKAIADLHHYGGLHVGCTVSALFWYIL | 45300 |
| DQKLPNPDDFANFEARIKLLSYDDRLSFYQRYCLKINMQVYYYVLSYILMLTS | 53300 |
| MIGVCWVGGGIGVWCFCELTSSSFYPIDLVDFFFSFFCFLNFLLAFDFGLLLA | 57000 |
| AVKAEPESTAPSLVKEENTEDTKPAPSSTAPAEPSSGGMFRKRKAPAAGAGSR | 39900 |
| CLLLAICCLYHVAFCIIVVLFWVAQVNAAPMEALQMVLAHVRYTFILSVSMVG | 63500 |
| WFRDMRFPYVPRAFSRLLKNLLVAVYVSLFNSCIFWFTSSRLHPQRRFIARYL | 64800 |
| TFLLLPIFVCPHPNLLFGLGFSLILHACLRQIFLSSLVICVFLSLLVIYMLYV | 50900 |
| FGFFSFSSFFFFLVLLYLFSFFFFLDFLSFSFLFPDIHSRIVINHNLVGNFFF | 44600 |
| ASGSGSGSKSGGGGARQGGGGAAGAAGGKGGGAAGGSKGGGGAWGKMKAAASD | 18700 |
| LECVRFAIMTHTVDLLQKVLWSQVDHILSRLPSIRTVKFRFFMDSSLWKKAAI | 41900 |
| MGCILIFSFFSFPTSIKKFLLLSFPFLSFPFPSLLFYLGFFSFLLYILQKFLV | 58100 |
| MTIDVIHVTYFTFFFFIIVLIYAHLVIPYILDVELLTYFLNDAFKWNMLNMLF | 50200 |
| GRADARRGRRRRGGGGEGRRGTGDGGRGKTRGGEAGKERRTENRGARGGATRG | 39600 |
| ISLLVLGCWIPFIILMEGYLQSLTFESFPYPGLYCFTSQGSHIIYLCWVLIAI | 60200 |
| MGNKQDGVSGLGFMLISFSCLLLEWLTCAVSSILLSSEFWELSLVCLTLFWFL | 28900 |
| KKRGKRTTNGKESGRSSKKARAGSQPKPRTNARTANAAAEDDDDDDEEDDHEG | 46700 |
| MTSRLHIICHICVFYGYILMFQAITSYHYFILLCILILILYLLTFILAHFYKY | 36800 |
| TEGEPETPADGDEEEGGEAEAEGGEEKKEEEEGWGLPVKKKKGKKGKGSNDAT | 26900 |

| Sequence | transcriptional activation domain activity |
| --- | --- |
| LLSVCVGKNCTVPSPLNSFDRSFYPIGCTNLSNDIPGYSFLNDAMSEIHTFGD | 82000 |
| VKAVVICLLICETLQITFFFCATYWLLIDHFGDFNALVVITWHESVQLLAGYL | 45200 |
| GEDSTRSAKKPTNKRKKASTAGDEGRETKARKTAKGRAGTRVRKGRGAKTSSS | 20500 |
| LLLPELFFFHLYWALIAFRFIPLLTLLRGMGYCLFFSLLFFFLFFSLFSVLFT | 53000 |
| GQPTDASDGNATEGEVPEKPKKAKRKRVKKDAGEISDGGQPKSKPKKKRKPAK | 36100 |
| IHILASIPSEFWKLLILSFFEKFRSNIYHTLFYRFIYLNRGFILLLLNQLRLI | 48100 |
| AGSSTFRDKGKGRASDAGPVSRTGDNEGGEESAGEGNQREKKRVKKEVKKAPR | 20300 |
| MSLKEDDFGKDNSRNIESYTGRIFDVYIQKDSYSQSALDDMFPEAVVSTAACV | 32700 |
| AADADEDDEDAPKKAPKKPAKRGRKKADDDDEEPEEEAQPAKKKAKGGRKAKK | 47700 |
| FWRYRQNQYAYILSYIVGSETSEERISVMRKNGTYHPAPYQFVYLRVRIANLS | 38700 |
| MFESVNLDENSPEDRELAKVLSPPGSYLSPASLDSGSSFTNSGTSTSCFEPKN | 32400 |
| HMALVHLFAFLDRFALFGKLYRAAQVVNRVTSPYVVLAWTSLYSFSLRVVART | 52400 |
| STTRQQRASLPLIHDIESFANDSVMANPLSDSASFLSEENEDDAFGALNYNSL | 51500 |
| MNGLWCRDDILFYISFVLILFSSFSIFLLLLDRLRFLFSFLFFFFFWCFVFIV | 45800 |
| PSPLPKHQIIREASNVRNITKMKKYDSTFYLHRDHVNYEEYGVDSLLFSYPED | 58100 |
| MLLIWLYALKTGLVLSGSFLLAFGTQYPFFFMYFIGKPLFHDSFFLLSFLFFP | 70200 |
| KLAKKEPKAAAKPKTEKAKVEKKPAAKKATTTKAKPAAPKAKAAAKPKAATTK | 23800 |
| ADRTSRRRDDRSRSRDRGSSRRDSDRHRHHSRRSSRAERTKKEESQGNGTVPD | 17800 |
| AKGAKKAKGAKKAKGAKKAAAGGAAAKAGAAAKAAKKAAKAKAAAAGGAAAAA | 26000 |
| CFAMVQQIFAKLLIMFEPRLDIPLLKFYTLLYRSVYYAICRRQQLYQEDMIAA | 57700 |
| SSCAPIPMVDFDINESNMVMGNYFDDFASFMDNVPIPNSVFSPSYQPLFAFLP | 114000 |

| Sequence | transcriptional activation domain activity |
| --- | --- |
| YSPLYLAITFAVQYGISFTSMTAVVVRTILWYRHDITWTFTLIYSSLGVAAFV | 63700 |
| PASPPIDRMERLHIRRTSPSPQGNYDEIRIDRARRISSSPPRRYEEVRVRHVS | 26700 |
| NILRPSLGCILFILIRYVSIIVMVVSNYGVLATSFTVEVCNRYYLVAPVFKVL | 46800 |
| APTDETGDAETKPRGRGRPKGSGTAKKAESQPESAEPTTARRGRKRASAAAES | 43400 |
| GLEFVEPWTELIEQRYMQCGDGDNNNFENLYNLFVNSNNINNDINNSRPITRK | 81200 |
| SHQEHVIAQLMNKVKSVSTTKPYVEYFQMPSKSVFITIVALCLYVILLKKTPS | 15500 |
| CSCSAGTRTSSSASSSAWRGASSSSSSRCSATRSSIARSRRTRSSCCARTRTC | 36200 |
| KPPCVWCRAVGTAASMLSNLLANGLLAFQCHMGWSIVYIAALLCIIYATTLSL | 38300 |
| HSSTAFSGYIDDPFNLNEILPLPASDFKLNTVTNLNEIDFTNIFTKSPHPHSG | 136000 |
| TTGGLFGGGAANTGTTGGFGSGGGFGSSTTGGGGLFGNAGNQPKPAGLFGSST | 27700 |
| ILQHILLWSLMVMTGCCPGSFFITSYYPNEWLKFLDGYMIQPYVTTFMIRGFL | 56900 |
| NLHNASTSSFNNEAFWKPLDSAIDHHSGDTNPNSNMNTTPNGNLSLDWLNLNL | 84600 |
| SLAVRTGAELGQDASMDDAEARNMDGNLDVDLAELSLGQRLTAVNGTEGAGRS | 19700 |
| YMYLVIVVTFLSILKTSQAIAVVWVQNVLFFANPDIARTLLNIAWWQNSVTLM | 54800 |
| NGTPETHGESIDSKRPRACEACRGLKVKCEPDPTNPDGPCKRCTKANRNCVVT | 25800 |
| AIGISGYVLPCLYRLALLVLNTTPNQPLDALLSFSHYTLQNSALAHFLPLFVN | 53400 |
| SFRYHYGELRLSRLNKIHCITRFTWRDFVRGYMTTSTWYQDFFARNFAWLLAV | 55900 |
| MIVLCASFFYILSSLSLFFFFLTLPIMHFLPFSRLFIFSCFLFPLYLFTSFFL | 31000 |
| AGPARTGSSSSSSSSDEDKKKKKDKAEEKVEEKKEKPEEKAEDKKEASTAVAA | 23300 |
| MFMGTLLLVFMDYGWAFFLDCYLWFFVTSLCFWYVKFCLLVGCCILVLCNVAW | 31700 |
